Measurements reported in patent publication US20070117770A1, “Human ribosomal DNA (rDNA) and ribosomal RNA (rRNA) nucleic acids and uses thereof” (Cylene Pharmaceuticals, Inc., priority 2005, published 2007).

Key:
nucleolin [1] = molecular target: T1, nucleolin (Homo sapiens, UniProt P19338); test: Filter-binding assay of 32P-labeled quadruplexes and Nucleolin; details: for Kd: 0.2 nM 32P-labeled quadruplex, read-out: Kd, apparent dissociation constant of nucleolin protein and the nucleic acid ligand
T1 construct: without the N-terminal acidic stretches domain
T1 sequence (P19338 284-710 limits assumed): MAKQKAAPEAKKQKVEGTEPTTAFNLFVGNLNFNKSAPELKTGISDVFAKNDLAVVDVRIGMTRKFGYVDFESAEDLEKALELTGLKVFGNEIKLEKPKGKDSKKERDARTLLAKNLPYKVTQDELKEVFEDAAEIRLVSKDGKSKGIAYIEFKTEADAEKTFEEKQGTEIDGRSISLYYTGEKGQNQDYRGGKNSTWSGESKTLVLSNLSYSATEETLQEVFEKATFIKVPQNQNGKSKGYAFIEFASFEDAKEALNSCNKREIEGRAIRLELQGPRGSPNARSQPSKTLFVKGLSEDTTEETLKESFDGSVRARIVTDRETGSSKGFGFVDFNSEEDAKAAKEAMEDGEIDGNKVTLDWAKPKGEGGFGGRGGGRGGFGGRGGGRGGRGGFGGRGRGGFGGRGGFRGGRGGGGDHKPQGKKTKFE
Method: The assay also was conducted in a filter-binding format. […] The protein-quadruplex mixtures were incubated for 30 min at ambient temperature and filtered through mixed cellulose ester membrane filters (Millipore) with gentle suction. The filters were washed twice with […] of binding buffer, dried and OptiPhase ‘SuperMix’ scintillation cocktail (Perkin Elmer) was added to the wells. Radioactivity was assayed with MicroBeta scintillation counter (Perkin Elmer). Binding curves were constructed and apparent Kd's and Bmax's for the complexes were calculated using the GraphPad Prizm software program (GraphPad Software). In the following table, the nucleic acid ligand is designated in the first column using the nomenclature described herein; the second column provides the nucleotide sequence of the nucleic acid ligand; the third column is the conformation of the ligand as determined by circular dichroism (M is mixed, P is parallel, A is antiparallel, C is complex, SS is single-stranded and ND is not determined); the fourth column is the dissociation constant determined by the filter binding assay of nucleolin protein and the nucleic acid ligand; the fifth column is a Bmax constant determined by the filter binding assay, which is the percent of active nucleic acid ligand in each assay; and the sixth column presents the concentration of Compound A-1 required to dissociate half of the complexed nucleic acid ligand and nucleolin protein, as determined by the EMSA assay described above.

nucleolin [2] = molecular target: T1, nucleolin; test: EMSA, relative affinity of nucleic acid ligands for nucleolin; assay type: binding; design: key: +: weakest nucleolin affinity; ++++: strongest nucleolin affinity
Method: The following assays assessed effects of compounds on interactions between nucleolin and nucleic acid ligands capable of forming quadruplex (QP) and hairpin (HP) secondary structures. Nucleic acid ligands tested were a cMyc QP DNA having nucleotide sequence 5′-[…]-3′ (SEQ ID NO: 176) and a HP pre-rRNA region to which nucleolin binds, having the sequence 5′-[…]-3′ (SEQ ID NO: 177). In the assays, recombinant nucleolin (˜250 nM), which was fused to maltose binding protein and had the sequence under accession number NM_005381 without the N-terminal acidic stretches domain, was incubated with each of the two ^32P-labeled nucleic acid ligands (10 or 250 nM). Nucleolin and the nucleic acid ligand were incubated in the presence or absence of a test compound of Formula A-1, B-1, C-6 or C-7 in an incubation buffer (12.5 mM Tris, pH 7.6, 60 mM KCl, 1 mM MgCl2, 0.1 mM EDTA, 1 mM DTT, 5% glycerol, 0.1 mg/ml BSA) for 30 minutes at room temperature. Structures for A-1 and B-1 are shown above and structures for C-6 and C-7 are shown hereafter: [drawing 17] The resulting complexes were separated on a 6% DNA retardation gel using 0.5× TBE with 20 mM KCl as a running buffer (i.e., electrophoresis mobility shift assay (EMSA)).
The assay also was conducted using nucleic acid ligands derived from human ribosomal DNA. Sequences of these nucleic acids are shown in the preceding example. […]

Molecule	Bmax, percent of active nucleic acid ligand (nucleolin [1])	Kd (nucleolin [1])	Affinity for Nucleolin (relative) (nucleolin [2])
AGGGCGGCGGGCGGGGAAGAGGGCACAGACGGGCGAGGGCCGGGGACCGCGAGGGCAAGGGCACCCGGG (nucleic acid, listed as Homo sapiens, DNA, backbone and methylation of C not given here) AGGGCGGCGGGCGGGGAAGAGGGCACAGACGGGCGAGGGCCGGGGACCGCGAGGGCAAGGGCACCCGGG	55%	0.7 nM	
CGGAGGGCGCGCGGGTCGGGGCGGCGGCGGCGGCGGCGGTGGCGGCGGCGGCGGGGGCGGCGGG (nucleic acid, listed as Homo sapiens, listed as DNA, chemistry not given here) CGGAGGGCGCGCGGGTCGGGGCGGCGGCGGCGGCGGCGGTGGCGGCGGCGGCGGGGGCGGCGGG	100%	0.3 nM	++++
